In the supplement of paper PMC10126150:
± gives the standard deviation of the averaged measurements.

System: ATP
Test: switch fluorescence ratio, 500 uM ATP over buffer (Cy3 cluster intensity, sum of 5 cycles each) (fold (ratio)); higher = stronger signal-on switching upon ATP binding; sequences stand for … in TCGTCGGCAGCGTCAGATGTGTATAAGAGACAGTTTTTTTTTTTTTTTTTTTTTTTTT…TC
Conditions: aptamer strand: ATP DNA aptamer (quencher-CACCTGGGGGAGTATTGCGGAGGAAGG + anchor), 100 nM annealed; ATP concentration: 500 uM
Procedure, shortened: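 Between each of five buffer/ATP cycles, the flow-cell was stripped with NaOH and re-annealed. Each cycle imaged Cy3-labelled switching-strand clusters, annealed to 100 nM quencher-labelled ATP aptamer on a modified Illumina MiSeq flow-cell, first in selection buffer and then after 15 min with 500 uM ATP at 22 °C. The fluorescence ratio is summed target-cycle over summed buffer-cycle Cy3 intensity per cluster, averaged per switch-domain sequence, with clusters outside 100-1000 RFU excluded.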
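Further: ATP exposure 15 min at 22 °C before imaging.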

## TATTGGTTAA
  switch fluorescence ratio: 0.974 ± 0.021

## TATTGGTTCG
  switch fluorescence ratio: 1.03 ± 0.027

## TATTGTAACC
  switch fluorescence ratio: 1.03 ± 0.016

## TATTGTAATG
  switch fluorescence ratio: 1.04 ± 0.0081

## TATTGTGTGT
  switch fluorescence ratio: 0.987 ± 0.022

## TATTGTTGAC
  switch fluorescence ratio: 1.037 ± 0.01

## TATTTAACTT
  switch fluorescence ratio: 1.014 ± 0.005

## TATTTAAGTT
  switch fluorescence ratio: 1.03 ± 0.013

## TATTTACGGG
  switch fluorescence ratio: 0.9931 ± 0.0065

## TATTTAGTAT
  switch fluorescence ratio: 0.99 ± 0.045

## TATTTAGTCT
  switch fluorescence ratio: 1 ± 0.026

## TATTTATGTT
  switch fluorescence ratio: 0.995 ± 0.031

## TATTTCATAT
  switch fluorescence ratio: 1 ± 0.013

## TATTTCGGGA
  switch fluorescence ratio: 0.994 ± 0.026

## TATTTCGGTT
  switch fluorescence ratio: 1.002 ± 0.0096

## TATTTCTGTG
  switch fluorescence ratio: 1.02 ± 0.034

## TATTTGAGA
  switch fluorescence ratio: 1.01 ± 0.019

## TATTTGATGG
  switch fluorescence ratio: 0.992 ± 0.021

## TATTTGGGGG
  switch fluorescence ratio: 1.01 ± 0.029

## TATTTGGGTA
  switch fluorescence ratio: 0.987 ± 0.026

## TATTTTAGAA
  switch fluorescence ratio: 0.996 ± 0.016

## TATTTTAGGG
  switch fluorescence ratio: 0.985 ± 0.029

## TATTTTCATT
  switch fluorescence ratio: 0.999 ± 0.015

## TATTTTCGGA
  switch fluorescence ratio: 0.97 ± 0.039

## TATTTTGAGT
  switch fluorescence ratio: 0.989 ± 0.012

## TATTTTGGAG
  switch fluorescence ratio: 0.985 ± 0.035

## TATTTTGGCC
  switch fluorescence ratio: 1.02 ± 0.04

## TATTTTGTCT
  switch fluorescence ratio: 1.1 ± 0.13

## TATTTTGTGT
  switch fluorescence ratio: 0.998 ± 0.036

## TATTTTTCCG
  switch fluorescence ratio: 1.03 ± 0.012

## TATTTTTGTG
  switch fluorescence ratio: 0.985 ± 0.011

## TATTTTTTAT
  switch fluorescence ratio: 1.022 ± 0.0017

## TATTTTTTTA
  switch fluorescence ratio: 0.997 ± 0.039

## TCAAAACGGC
  switch fluorescence ratio: 1.07 ± 0.15

## TCAAAAGGGG
  switch fluorescence ratio: 1.06 ± 0.092

## TCAAACAGTG
  switch fluorescence ratio: 1.02 ± 0.039

## TCAAAGATAA
  switch fluorescence ratio: 0.98902 ± 2.8e-05

## TCAAAGCCCT
  switch fluorescence ratio: 1.03 ± 0.03

## TCAAATCGTT
  switch fluorescence ratio: 0.992 ± 0.0074

## TCAAATGGCG
  switch fluorescence ratio: 0.923 ± 0.023

## TCAAATTAGA
  switch fluorescence ratio: 0.966 ± 0.026

## TCAACAGGA
  switch fluorescence ratio: 1.01 ± 0.033

## TCAACCTACG
  switch fluorescence ratio: 1.36 ± 0.17

## TCAACGGGTA
  switch fluorescence ratio: 1.01 ± 0.021

## TCAACGTCAG
  switch fluorescence ratio: 0.9872 ± 0.0048

## TCAAGAGATG
  switch fluorescence ratio: 1 ± 0.015

## TCAAGATTAT
  switch fluorescence ratio: 0.994 ± 0.027

## TCAAGCCGAG
  switch fluorescence ratio: 1.08 ± 0.062

## TCAAGGAGGT
  switch fluorescence ratio: 1.01 ± 0.13

## TCAAGGCCTG
  switch fluorescence ratio: 1.01 ± 0.042

## TCAAGGGTCC
  switch fluorescence ratio: 0.996 ± 0.07

## TCAAGTAAAG
  switch fluorescence ratio: 1.14 ± 0.23

## TCAAGTGTTT
  switch fluorescence ratio: 0.993 ± 0.015

## TCAAGTTTTC
  switch fluorescence ratio: 0.987 ± 0.034

## TCAATCAGGT
  switch fluorescence ratio: 1.032 ± 0.0019

## TCAATCGACA
  switch fluorescence ratio: 1 ± 0.041

## TCAATCGTTG
  switch fluorescence ratio: 1.05 ± 0.016

## TCAATCTAAC
  switch fluorescence ratio: 1.35 ± 0.55

## TCAATGGGGC
  switch fluorescence ratio: 0.979 ± 0.044

## TCAATGGGTA
  switch fluorescence ratio: 0.991 ± 0.021

## TCAATGGTAA
  switch fluorescence ratio: 0.97 ± 0.096

## TCAATGGTTA
  switch fluorescence ratio: 0.978 ± 0.014

## TCAATGTGCG
  switch fluorescence ratio: 1.013 ± 0.01

## TCAATTCTGA
  switch fluorescence ratio: 1.002 ± 0.0075

## TCACAAATAA
  switch fluorescence ratio: 0.993 ± 0.043

## TCACAAATGA
  switch fluorescence ratio: 1.013 ± 0.0077

## TCACAAGTTG
  switch fluorescence ratio: 1.01 ± 0.019

## TCACAGTTTT
  switch fluorescence ratio: 0.983 ± 0.02

## TCACATGTGG
  switch fluorescence ratio: 1.03 ± 0.044

## TCACATTAAG
  switch fluorescence ratio: 1.01 ± 0.037

## TCACATTTGG
  switch fluorescence ratio: 1.03 ± 0.045

## TCACATTTTA
  switch fluorescence ratio: 0.995 ± 0.04

## TCACGCCTTT
  switch fluorescence ratio: 1.05 ± 0.033

## TCACGGGCAG
  switch fluorescence ratio: 0.978 ± 0.012

## TCACGGGGTT
  switch fluorescence ratio: 1.01 ± 0.039

## TCACGGTGTC
  switch fluorescence ratio: 1.11 ± 0.026

## TCACGTGTCA
  switch fluorescence ratio: 0.9999 ± 0.0089

## TCACGTTAAT
  switch fluorescence ratio: 1.2 ± 0.058

## TCACGTTGGG
  switch fluorescence ratio: 0.9989 ± 0.0094

## TCACTCATTG
  switch fluorescence ratio: 0.9975 ± 0.0014

## TCACTGAGCT
  switch fluorescence ratio: 1.05 ± 0.034

## TCACTGGGGA
  switch fluorescence ratio: 0.995 ± 0.03

## TCACTTAATA
  switch fluorescence ratio: 0.994 ± 0.014

## TCAGAATGGG
  switch fluorescence ratio: 0.9833 ± 0.0047

## TCAGACAGTT
  switch fluorescence ratio: 0.987 ± 0.0042

## TCAGACTTGC
  switch fluorescence ratio: 1 ± 0.035

## TCAGAGACCC
  switch fluorescence ratio: 1.006 ± 0.009

## TCAGATATTG
  switch fluorescence ratio: 0.992 ± 0.04

## TCAGATTGGC
  switch fluorescence ratio: 1.04 ± 0.12

## TCAGCCTAGG
  switch fluorescence ratio: 1.02 ± 0.023

## TCAGCGTGGG
  switch fluorescence ratio: 1.04 ± 0.054

## TCAGCTGCAA
  switch fluorescence ratio: 4.21 ± 0.32

## TCAGGAGGGC
  switch fluorescence ratio: 0.999 ± 0.016

## TCAGGAGTTT
  switch fluorescence ratio: 1.04 ± 0.011

## TCAGGATGTT
  switch fluorescence ratio: 0.987 ± 0.026

## TCAGGATTAG
  switch fluorescence ratio: 1.02 ± 0.02

## TCAGGATTGT
  switch fluorescence ratio: 0.967 ± 0.031

## TCAGGGACCG
  switch fluorescence ratio: 1.03 ± 0.026

## TCAGGGAGTT
  switch fluorescence ratio: 0.969 ± 0.015

## TCAGGGATT
  switch fluorescence ratio: 1.01 ± 0.057

## TCAGGGCATG
  switch fluorescence ratio: 1.04 ± 0.043

## TCAGGGCTGT
  switch fluorescence ratio: 0.994 ± 0.029

## TCAGGGGAAC
  switch fluorescence ratio: 1.06 ± 0.07

## TCAGGGGCCC
  switch fluorescence ratio: 1.07 ± 0.084

## TCAGGGGGAT
  switch fluorescence ratio: 1.02 ± 0.028

## TCAGGGGGGA
  switch fluorescence ratio: 1 ± 0.04

## TCAGGGGTTT
  switch fluorescence ratio: 1.3 ± 0.53

## TCAGGGTAGG
  switch fluorescence ratio: 1.04 ± 0.033

## TCAGGGTCAG
  switch fluorescence ratio: 1.007 ± 0.0063

## TCAGGGTGC
  switch fluorescence ratio: 1.204 ± 0.0036

## TCAGGGTGTC
  switch fluorescence ratio: 1.33 ± 0.17

## TCAGGGTGTG
  switch fluorescence ratio: 1.019 ± 0.0067

## TCAGGTGGAG
  switch fluorescence ratio: 1.03 ± 0.041

## TCAGGTGTGA
  switch fluorescence ratio: 1.27 ± 0.025

## TCAGGTGTGT
  switch fluorescence ratio: 1.36 ± 0.11

## TCAGGTTTTG
  switch fluorescence ratio: 0.98 ± 0.013

## TCAGTAACGT
  switch fluorescence ratio: 1.02 ± 0.013

## TCAGTAAGTT
  switch fluorescence ratio: 0.995 ± 0.021

## TCAGTACGAC
  switch fluorescence ratio: 1.2 ± 0.021

## TCAGTAGTGA
  switch fluorescence ratio: 1.06 ± 0.051

## TCAGTATAGG
  switch fluorescence ratio: 1.01 ± 0.021

## TCAGTATTTT
  switch fluorescence ratio: 1.018 ± 0.0047

## TCAGTCAAGG
  switch fluorescence ratio: 0.9745 ± 0.0044

## TCAGTCATCT
  switch fluorescence ratio: 1 ± 0.013

## TCAGTGAAAC
  switch fluorescence ratio: 0.988 ± 0.021

## TCAGTGTTTT
  switch fluorescence ratio: 1 ± 0.04

## TCAGTTTTTC
  switch fluorescence ratio: 1.013 ± 0.0022

## TCATAAAACC
  switch fluorescence ratio: 1.09 ± 0.11

## TCATAAGGGC
  switch fluorescence ratio: 1.01 ± 0.12

## TCATACGTCG
  switch fluorescence ratio: 1.03 ± 0.036

## TCATAGGGTG
  switch fluorescence ratio: 1.03 ± 0.1

## TCATATTCTA
  switch fluorescence ratio: 0.9849 ± 0.0019

## TCATATTGAT
  switch fluorescence ratio: 0.984 ± 0.051

## TCATATTGCG
  switch fluorescence ratio: 0.983 ± 0.019

## TCATCAGTCT
  switch fluorescence ratio: 0.995 ± 0.039

## TCATCCTAGC
  switch fluorescence ratio: 1.19 ± 0.062

## TCATCGGGGT
  switch fluorescence ratio: 0.994 ± 0.023

## TCATCTACAG
  switch fluorescence ratio: 1.02 ± 0.013

## TCATCTCTGG
  switch fluorescence ratio: 0.992 ± 0.024

## TCATCTTGTC
  switch fluorescence ratio: 1.01 ± 0.04

## TCATGAAAAG
  switch fluorescence ratio: 0.997 ± 0.013

## TCATGAACAT
  switch fluorescence ratio: 1.001 ± 0.0082

## TCATGAAGGA
  switch fluorescence ratio: 0.964 ± 0.018

## TCATGACCCA
  switch fluorescence ratio: 1.03 ± 0.018

## TCATGATGTA
  switch fluorescence ratio: 0.9848 ± 0.0061

## TCATGGAGGT
  switch fluorescence ratio: 0.96 ± 0.03

## TCATGGGAGA
  switch fluorescence ratio: 0.984 ± 0.04

## TCATGGGCCG
  switch fluorescence ratio: 1.33 ± 0.43

## TCATGGTACG
  switch fluorescence ratio: 1.06 ± 0.022

## TCATGGTCCC
  switch fluorescence ratio: 1.02 ± 0.018

## TCATGGTTG
  switch fluorescence ratio: 1.01 ± 0.01

## TCATGTACCG
  switch fluorescence ratio: 1.05 ± 0.044

## TCATGTGCGG
  switch fluorescence ratio: 0.9639 ± 0.0022

## TCATTAAGGT
  switch fluorescence ratio: 0.995 ± 0.03

## TCATTAGGGG
  switch fluorescence ratio: 0.994 ± 0.041

## TCATTATTCG
  switch fluorescence ratio: 0.985 ± 0.027

## TCATTTCGA
  switch fluorescence ratio: 0.988 ± 0.02
